Data published in PMC8754651, “Three human RNA polymerases interact with TFIIH via a common RPB6 subunit” (Nucleic Acids Research, 2021).

B1: human RPB6 (residues 1–24), NTT peptide (peptide, UniProt P61218 1-24, looked up)
peptide: MSDNEDNFDGDDFDDVEEDEGLDD
notes: RPB6, human, N-terminal tail (NTT), residues 1-24; also called NTT peptide derived from human RPB6
B2: human RPB6 (residues 1–24) F13A (peptide, UniProt P61218 1-24, looked up)
peptide: MSDNEDNFDGDDADDVEEDEGLDD
notes: RPB6, human, N-terminal tail, residues 1-24, with F13A
B3: human RPB6 (residues 1–24) F8A (peptide, UniProt P61218 1-24, looked up)
peptide: MSDNEDNADGDDFDDVEEDEGLDD
notes: RPB6, human, N-terminal tail, residues 1-24, with F8A
B4: human RPB6 (residues 1–24) F13A-V16A (peptide, UniProt P61218 1-24, looked up)
peptide: MSDNEDNFDGDDADDAEEDEGLDD
notes: RPB6, human, N-terminal tail, residues 1-24, with F13A and V16A; also called F13A-V16A double mutation
B5: human RPB6 (residues 1–24) V16A (peptide, UniProt P61218 1-24, looked up)
peptide: MSDNEDNFDGDDFDDAEEDEGLDD
notes: RPB6, human, N-terminal tail, residues 1-24, with V16A
B6: human RPB6 (residues 1–24) S2A (peptide, UniProt P61218 1-24, looked up)
peptide: MADNEDNFDGDDFDDVEEDEGLDD
notes: RPB6, human, N-terminal tail, residues 1-24, with Ser2 substituted to alanine; also called Ser2 alanine substitution
B7: human TFIIH p62 PH domain (PH-D) (residues 1–108) (domain or fragment)
chain: MATSSEEVLLIVKKVRQKKQDGALYLMAERIAWAPEGKDRFTISHMYADIKCQKISPEGKAKIQLQLVLHAGDTTNFHFSNESTAVKERDAVKDLLQQLLPKFKRKAN
notes: p62 subunit of the general transcription/repair factor TFIIH, human, N-terminal pleckstrin homology (PH) domain, residues 1-108; Unlabeled, 15N-labeled or 13C/15N-labeled according to the experiment; Expressed from pET15b; a few vector residues may remain after thrombin cleavage (surmise); source: E. coli BL21 (DE3) Gold, purified (Ni-NTA, thrombin digestion, Superdex75)

Tests used:
[1] = biological target: B7; assay: ITC; 100∼300 μM RPB6/Rpb6 peptide in the syringe titrated into 10–30 μM p62 PH-D in the cell; 20 mM potassium phosphate (pH 6.8) with or without 25 mM NaCl, 20°C; VP-ITC; conditions: both partners purified
[2] = biological target: human RPB6 (residues 1–127), full-length (human, UniProt P61218 1-127); assay: NMR structure; complex at 0.38 mM, 13C/15N-labeled RPB6 with unlabeled p62 PH-D at 1.0:2.0 (and 13C/15N-labeled p62 PH-D with unlabeled RPB6); 20 mM potassium phosphate (pH 6.8), 25 mM NaCl, 5 mM deuterated DTT, 25°C; intermolecular NOEs; conditions: both partners purified

Row | Binder | binding result [1] | binding result [2]
1 | B1 | binds | –
2 | B2 | binds | –
3 | B3 | binds | –
4 | B4 | binds | –
5 | B5 | binds | –
6 | B6 | binds | –
7 | B7 | – | binds
